Source: patent US20200268901A1
Residue numbers refer to the chain shown, from its start. Blank lines part the entries; values can stand above or below the binder they belong to.

Key:
[1] = molecular target: hCD73-his (full length extracellular domain of human CD73, residues 26-546, C-terminal polyhistidine tag) (human) (UniProt P21589); assay: SEC-MALS, hCD73-his:Fab 1:2 (4:8 uM); peak at ~12.6 min, 0.9 % of UV
[2] = molecular target: hCD73-his (full length extracellular domain of human CD73, residues 26-546, C-terminal polyhistidine tag) (human) (UniProt P21589); assay: SEC-MALS, hCD73-his:Fab 1:2 (4:8 uM); peak at ~16.8 min, 0.8 % of UV
[3] = molecular target: hCD73-his (full length extracellular domain of human CD73, residues 26-546, C-terminal polyhistidine tag) (human) (UniProt P21589); assay: SEC-MALS, hCD73-his:Fab 1:2 (4:8 uM); peak at ~20.1 min, 7.7 % of UV
[4] = molecular target: hCD73-his (full length extracellular domain of human CD73, residues 26-546, C-terminal polyhistidine tag) (human) (UniProt P21589); assay: SEC-MALS, hCD73-his:Fab 1:2 (4:8 uM); peak at ~14.7 min, 90.7 % of UV
[5] = molecular target: N-hCD73-his (N-terminal domain of human CD73, residues 26-336) (human) (UniProt P21589); assay: SEC-MALS, N-hCD73-his:Fab 1:1 (8:8 uM); peak at ~20.0 min, 4.7 % of UV
N-hCD73-his (N-terminal domain of human CD73, residues 26-336) (human), sequence (P21589 26-336 limits assumed): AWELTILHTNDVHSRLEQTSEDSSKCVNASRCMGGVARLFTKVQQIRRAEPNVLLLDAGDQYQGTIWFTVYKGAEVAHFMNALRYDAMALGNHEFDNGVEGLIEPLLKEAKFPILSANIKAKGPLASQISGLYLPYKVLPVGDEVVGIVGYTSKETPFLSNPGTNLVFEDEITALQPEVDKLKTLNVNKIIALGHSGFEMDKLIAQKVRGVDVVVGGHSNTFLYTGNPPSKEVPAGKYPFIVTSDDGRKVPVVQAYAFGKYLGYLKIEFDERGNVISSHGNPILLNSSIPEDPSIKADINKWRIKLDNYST

[6] = molecular target: N-hCD73-his (N-terminal domain of human CD73, residues 26-336) (human) (UniProt P21589); assay: SEC-MALS, N-hCD73-his:Fab 1:1 (8:8 uM); peak at ~17.4 min, 95.3 % of UV
[7] = molecular target: hCD73-his (full length extracellular domain of human CD73, residues 26-546, C-terminal polyhistidine tag) (human) (UniProt P21589); assay: DLS, hCD73-his:Fab 1:2 (4:8 uM); Rh SD 0.1, %Pd 15.1 (SD 4.3), %Mass 100.0 (SD 0.0)
[8] = molecular target: N-hCD73-his (N-terminal domain of human CD73, residues 26-336) (human) (UniProt P21589); assay: DLS, N-hCD73-his:Fab 1:1 (8:8 uM); Rh SD 0.1, %Pd 12.6 (SD 4.7), %Mass 100.0 (SD 0.0)
[9] = molecular target: hCD73-his (full length extracellular domain of human CD73, residues 26-546, C-terminal polyhistidine tag) (human) (UniProt P21589); assay: SEC-MALS, hCD73:mAb 1:1 (2.5:[…]); peak at ~17.1 min, […] of UV
[10] = molecular target: hCD73-his (full length extracellular domain of human CD73, residues 26-546, C-terminal polyhistidine tag) (human) (UniProt P21589); assay: SEC-MALS, hCD73:mAb 1:1 (2.5:[…]); peak at ~13.4 min, 1.9 % of UV
[11] = molecular target: hCD73-his (full length extracellular domain of human CD73, residues 26-546, C-terminal polyhistidine tag) (human) (UniProt P21589); assay: SEC-MALS, hCD73:mAb 1:4 (2.5:10 uM); peak at ~11.7 min, […] of UV
[12] = molecular target: hCD73-his (full length extracellular domain of human CD73, residues 26-546, C-terminal polyhistidine tag) (human) (UniProt P21589); assay: SEC-MALS, hCD73:mAb 1:1 (2.5:[…]); peak at ~11.5 min, 95.3 % of UV
[13] = molecular target: hCD73-his (full length extracellular domain of human CD73, residues 26-546, C-terminal polyhistidine tag) (human) (UniProt P21589); assay: SEC-MALS, hCD73:mAb 1:2 (2.5:5 uM); peak at ~15.3 min, 0.6 % of UV
[14] = molecular target: hCD73-his (full length extracellular domain of human CD73, residues 26-546, C-terminal polyhistidine tag) (human) (UniProt P21589); assay: SEC-MALS, hCD73:mAb 1:2 (2.5:5 uM); peak at ~11.7 min, 52.5 % of UV
[15] = molecular target: hCD73-his (full length extracellular domain of human CD73, residues 26-546, C-terminal polyhistidine tag) (human) (UniProt P21589); assay: SEC-MALS, hCD73:mAb 1:2 (2.5:5 uM); peak at ~13.4 min, 17.7 % of UV
[16] = molecular target: hCD73-his (full length extracellular domain of human CD73, residues 26-546, C-terminal polyhistidine tag) (human) (UniProt P21589); assay: SEC-MALS, hCD73:mAb 1:2 (2.5:5 uM); peak at ~17.1 min, 29.3 % of UV
[17] = molecular target: hCD73-his (full length extracellular domain of human CD73, residues 26-546, C-terminal polyhistidine tag) (human) (UniProt P21589); assay: SEC-MALS, hCD73:mAb 1:4 (2.5:10 uM); peak at ~15.3 min, 1.2 % of UV
[18] = molecular target: hCD73-his (full length extracellular domain of human CD73, residues 26-546, C-terminal polyhistidine tag) (human) (UniProt P21589); assay: SEC-MALS, hCD73:mAb 1:4 (2.5:10 uM); peak at ~13.4 min, 16.2 % of UV
[19] = molecular target: hCD73-his (full length extracellular domain of human CD73, residues 26-546, C-terminal polyhistidine tag) (human) (UniProt P21589); assay: SEC-MALS, hCD73:mAb 1:4 (2.5:10 uM); peak at ~17.1 min, 58.6 % of UV
[20] = molecular target: hCD73-his (full length extracellular domain of human CD73, residues 26-546, C-terminal polyhistidine tag) (human) (UniProt P21589); assay: SEC-MALS, hCD73:mAb 1:0.5 (2.5:1.25 uM); peak at ~11.7 min, 71.9 % of UV
[21] = molecular target: hCD73-his (full length extracellular domain of human CD73, residues 26-546, C-terminal polyhistidine tag) (human) (UniProt P21589); assay: SEC-MALS, hCD73:mAb 1:0.5 (2.5:1.25 uM); peak at ~13.4 min, 15.8 % of UV
[22] = molecular target: hCD73-his (full length extracellular domain of human CD73, residues 26-546, C-terminal polyhistidine tag) (human) (UniProt P21589); assay: SEC-MALS, hCD73:mAb 1:0.5 (2.5:1.25 uM); peak at ~17.1 min, 13.4 % of UV
[23] = molecular target: N-hCD73-his (N-terminal domain of human CD73, residues 26-336) (human) (UniProt P21589); assay: SEC-MALS, N-hCD73:mAb 1:1 as printed (5:[…]); peak at ~15.9 min, […] of UV
[24] = molecular target: N-hCD73-his (N-terminal domain of human CD73, residues 26-336) (human) (UniProt P21589); assay: SEC-MALS, N-hCD73:mAb 1:1 as printed (5:[…]); peak at ~17.0 min, […] of UV
[25] = molecular target: hCD73-his (full length extracellular domain of human CD73, residues 26-546, C-terminal polyhistidine tag) (human) (UniProt P21589); assay: SEC-MALS, hCD73:mAb 1:0.25 (2.5:0.625 uM); peak at ~11.8 min, 42.0 % of UV
[26] = molecular target: hCD73-his (full length extracellular domain of human CD73, residues 26-546, C-terminal polyhistidine tag) (human) (UniProt P21589); assay: SEC-MALS, hCD73:mAb 1:0.25 (2.5:0.625 uM); peak at ~13.4 min, 21.6 % of UV
[27] = molecular target: hCD73-his (full length extracellular domain of human CD73, residues 26-546, C-terminal polyhistidine tag) (human) (UniProt P21589); assay: SEC-MALS, hCD73:mAb 1:0.25 (2.5:0.625 uM); peak at ~17.1 min, 36.4 % of UV
[28] = molecular target: N-hCD73-his (N-terminal domain of human CD73, residues 26-336) (human) (UniProt P21589); assay: SEC-MALS, N-hCD73:mAb 1:1 as printed (5:[…]); peak at ~13.9 min, 0.7 % of UV
[29] = molecular target: N-hCD73-his (N-terminal domain of human CD73, residues 26-336) (human) (UniProt P21589); assay: SEC-MALS, N-hCD73:mAb 1:1 as printed (5:[…]); peak at ~14.7 min, 88.3 % of UV
[30] = molecular target: hCD73-his (full length extracellular domain of human CD73, residues 26-546, C-terminal polyhistidine tag) (human) (UniProt P21589); assay: DLS, hCD73:mAb 1:1 (2.5:[…]); Rh SD 1.0, %Pd 25.1 (SD 2.1), %Mass 22.3 (SD 4.9)
[31] = molecular target: hCD73-his (full length extracellular domain of human CD73, residues 26-546, C-terminal polyhistidine tag) (human) (UniProt P21589); assay: DLS, hCD73:mAb 1:2 (2.5:5 uM); Rh SD 0.1, %Pd 31.3 (SD 5.5), %Mass 68.7 (SD 25.8)
[32] = molecular target: hCD73-his (full length extracellular domain of human CD73, residues 26-546, C-terminal polyhistidine tag) (human) (UniProt P21589); assay: DLS, hCD73:mAb 1:4 (2.5:10 uM); Rh SD 0.9, %Pd 42.9 (SD 3.5), %Mass 90.2 (SD 17.5)
[33] = molecular target: hCD73-his (full length extracellular domain of human CD73, residues 26-546, C-terminal polyhistidine tag) (human) (UniProt P21589); assay: DLS, hCD73:mAb 1:0.5 (2.5:1.25 uM); Rh SD 1.0, %Pd 31.7 (SD 8.8), %Mass 62.6 (SD 25.8)
[34] = molecular target: hCD73-his (full length extracellular domain of human CD73, residues 26-546, C-terminal polyhistidine tag) (human) (UniProt P21589); assay: DLS, hCD73:mAb 1:0.25 (2.5:0.625 uM); Rh SD 1.7, %Pd 46.5 (SD 5.9), %Mass 99.9 (SD 0.1)
[35] = molecular target: N-hCD73-his (N-terminal domain of human CD73, residues 26-336) (human) (UniProt P21589); assay: DLS, N-hCD73:mAb 1:1 as printed (5:[…]); Rh SD 0.3, %Pd 13.9 (SD 7.0), %Mass 100.0 (SD 0.0)

hCD73-his (full length extracellular domain of human CD73, residues 26-546, C-terminal polyhistidine tag) (human), sequence (P21589 26-546 limits assumed): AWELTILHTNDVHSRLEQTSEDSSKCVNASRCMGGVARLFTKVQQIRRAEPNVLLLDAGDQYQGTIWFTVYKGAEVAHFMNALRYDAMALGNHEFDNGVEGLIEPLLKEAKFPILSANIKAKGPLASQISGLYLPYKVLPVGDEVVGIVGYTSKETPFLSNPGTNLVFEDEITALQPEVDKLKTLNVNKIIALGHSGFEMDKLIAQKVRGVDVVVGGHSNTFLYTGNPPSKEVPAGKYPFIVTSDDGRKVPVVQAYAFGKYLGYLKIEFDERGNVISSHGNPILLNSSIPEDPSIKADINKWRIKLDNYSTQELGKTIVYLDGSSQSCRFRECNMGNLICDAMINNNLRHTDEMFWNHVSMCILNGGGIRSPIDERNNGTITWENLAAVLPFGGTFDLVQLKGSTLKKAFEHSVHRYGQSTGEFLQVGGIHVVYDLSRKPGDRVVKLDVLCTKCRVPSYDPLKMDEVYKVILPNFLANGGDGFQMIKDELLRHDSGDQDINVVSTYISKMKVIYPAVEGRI

MW (kDa) Peak 1 [1]: 300 kDa
MW (kDa) Peak 3 [2]: 85 kDa
MW (kDa) Peak 4 [3]: 40 kDa
MW (kDa) Peak 2 [4]: 310 kDa
MW (kDa) Peak 2 [5]: 44 kDa
MW (kDa) Peak 1 [6]: 84 kDa
Rh (DLS) [7]: 6.4 nm
Rh (DLS) [8]: 4.2 nm
B1: 11F11-Fab (Fab, V domains shown, part only)
VH: QVQLVESGGGVVQPGRSLRLSCATSGFTFSNYGMHWVRQAPGKGLEWVAVILYDGSNKYYPDSVKGRFTISRDNSKNTLYLQMNSLRAEDTAVYYCARGGSSWYPDSFDIWGQGTMVTVSS
VL: DIQMTQSPSSLSASVGDRVTITCRASQGISSWLAWYQQKPEKAPKSLIYAASSLQSGVPSRFSGSGSGTDFTLTISSLQPEDFATYYCQQYNSYPLTFGGGTKVEIKR
modifications: CH1 of Fab heavy chain not stated

MW (kDa) Peak 3 [9]: 530 kDa
MW (kDa) Peak 2 [10]: 1000 kDa
MW (kDa) Peak 1 [11]: 1300 kDa
MW (kDa) Peak 1 [12]: 3300 kDa
MW (kDa) Peak 3 [13]: 220 kDa
MW (kDa) Peak 1 [14]: 1700 kDa
MW (kDa) Peak 2 [15]: 500 kDa
MW (kDa) Peak 4 [16]: 140 kDa
MW (kDa) Peak 3 [17]: 200 kDa
MW (kDa) Peak 2 [18]: 500 kDa
MW (kDa) Peak 4 [19]: 140 kDa
MW (kDa) Peak 1 [20]: 1900 kDa
MW (kDa) Peak 2 [21]: 540 kDa
MW (kDa) Peak 3 [22]: 130 kDa
MW (kDa) Peak 3 [23]: 180 kDa
MW (kDa) Peak 4 [24]: 150 kDa
MW (kDa) Peak 1 [25]: 1200 kDa
MW (kDa) Peak 2 [26]: 520 kDa
MW (kDa) Peak 3 [27]: 120 kDa
MW (kDa) Peak 1 [28]: 390 kDa
MW (kDa) Peak 2 [29]: 210 kDa
Rh (DLS) [30]: 29.9 nm
Rh (DLS) [31]: 14.4 nm
Rh (DLS) [32]: 11.4 nm
Rh (DLS) [33]: 17.5 nm
Rh (DLS) [34]: 13.2 nm
Rh (DLS) [35]: 6.7 nm
B2: CD73.4-hybrid (antibody, from a related filing, V domains shown, part only)
VH: B1 VH with T24A
VL: B1 VL
